The text below walks through data of paper PMC3713010, “Sox2 Transcriptionally Regulates Pqbp1, an Intellectual Disability-Microcephaly Causative Gene, in Neural Stem Progenitor Cells”.

One data set has as its target Sox2;Brn2 (Mus musculus (B6);Mus musculus (B6), UniProt P48432;P31360 1-319;1-445, |). Briefly: EMSA; supershift with anti-Brn2; EMSA: 20 ng GST-fusion protein, 20 mM HEPES pH 7.8, 45 mM KCl, 10 mM NaCl, 1 mM EDTA, 1 mM DTT, 10% glycerol, 0.2 ug/uL BSA, 0.1% NP-40, 50 ng poly-dIdC; RT 30. Particulars: protein: recombinant;recombinant; tags: GST (N-terminal, pGEX-6P-1);GST (N-terminal, pGEX-6P-1); copies: 1;1; label: 32P. (A gel shift assay detects complexes by their altered migration in electrophoresis.)

In a further data set the target is Sox2;Pax6 (Mus musculus (B6);Mus musculus (B6), UniProt P48432;P63015 1-319;1-422, |). Briefly: EMSA; supershift with anti-Pax6; EMSA: 20 ng GST-fusion protein, 20 mM HEPES pH 7.8, 45 mM KCl, 10 mM NaCl, 1 mM EDTA, 1 mM DTT, 10% glycerol, 0.2 ug/uL BSA, 0.1% NP-40, 50 ng poly-dIdC; RT 30. Particulars: protein: recombinant;recombinant; tags: GST (N-terminal, pGEX-6P-1);GST (N-terminal, pGEX-6P-1); copies: 1;1; label: 32P.
Chain of Sox2;Pax6 (P48432 whole entry, chain 1 of 2, the tested form may be a part): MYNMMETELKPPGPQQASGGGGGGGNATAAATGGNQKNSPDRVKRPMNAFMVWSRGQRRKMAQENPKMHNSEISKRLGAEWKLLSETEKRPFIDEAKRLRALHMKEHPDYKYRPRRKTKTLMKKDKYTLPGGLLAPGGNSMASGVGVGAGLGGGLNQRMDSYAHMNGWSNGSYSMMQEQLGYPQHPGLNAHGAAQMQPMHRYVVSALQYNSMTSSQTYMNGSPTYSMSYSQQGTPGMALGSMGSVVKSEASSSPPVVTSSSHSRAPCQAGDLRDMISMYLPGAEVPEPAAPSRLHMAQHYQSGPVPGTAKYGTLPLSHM
Chain of Sox2;Pax6 (P63015 whole entry, chain 2 of 2, the tested form may be a part): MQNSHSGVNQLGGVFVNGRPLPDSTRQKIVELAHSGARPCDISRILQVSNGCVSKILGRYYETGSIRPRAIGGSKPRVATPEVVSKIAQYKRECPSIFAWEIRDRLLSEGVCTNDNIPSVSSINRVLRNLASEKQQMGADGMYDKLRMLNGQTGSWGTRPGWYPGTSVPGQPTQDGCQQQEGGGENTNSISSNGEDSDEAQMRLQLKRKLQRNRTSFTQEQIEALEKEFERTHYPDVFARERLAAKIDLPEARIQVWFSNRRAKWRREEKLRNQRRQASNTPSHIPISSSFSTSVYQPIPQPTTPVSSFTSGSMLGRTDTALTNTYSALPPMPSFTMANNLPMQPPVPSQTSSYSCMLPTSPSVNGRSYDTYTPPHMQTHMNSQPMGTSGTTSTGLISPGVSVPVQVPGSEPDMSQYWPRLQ

Chain of Sox2;Brn2 (P48432 whole entry, chain 1 of 2, the tested form may be a part): as the sequence (P48432 whole entry, chain 1 of 2, the tested form may be a part) above
Chain of Sox2;Brn2 (P31360 whole entry, chain 2 of 2, the tested form may be a part): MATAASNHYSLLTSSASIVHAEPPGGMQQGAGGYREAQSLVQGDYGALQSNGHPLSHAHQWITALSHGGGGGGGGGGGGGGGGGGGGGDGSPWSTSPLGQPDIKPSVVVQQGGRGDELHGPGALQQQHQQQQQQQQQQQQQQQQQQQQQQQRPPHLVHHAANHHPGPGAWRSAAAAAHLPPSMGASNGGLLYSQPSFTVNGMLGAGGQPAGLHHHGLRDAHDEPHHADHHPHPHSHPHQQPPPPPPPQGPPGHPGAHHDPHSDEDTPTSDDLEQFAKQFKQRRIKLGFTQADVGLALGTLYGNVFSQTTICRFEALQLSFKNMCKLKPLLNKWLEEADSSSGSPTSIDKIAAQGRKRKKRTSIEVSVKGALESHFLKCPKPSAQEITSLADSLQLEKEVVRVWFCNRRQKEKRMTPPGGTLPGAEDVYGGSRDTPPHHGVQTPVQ

B1: Sox2-Brn2 consensus probe (dsDNA)
DNA 1: GGGTAGTGTGGACAAAAGGCAATAATTAGCATGAGAATC
DNA 2: GATTCTCATGCTAATTATTGCCTTTTGTCCACACTACCC
Turning to B1, the binding result in the data set with Sox2;Brn2 is on record as “binds”.

B2: Sox2-Pax6 consensus probe (dsDNA)
DNA 1: GGGAAATATTCATTGTTGTTGCTCACCTACCATGGA
DNA 2: TCCATGGTAGGTGAGCAACAACAATGAATATTTCCC
For B2, the binding result with Sox2;Pax6 is “binds”.
